Literature values, collected in patent US20260125483A1, “COMPOSITIONS OF IL-6/IL-6R ANTIBODIES AND METHODS OF USE THEREOF” (Tiziana Life Sciences PLC, priority 2020, published 2026).

B1: 39B9 VL1: IL-6R antibody, heavy chain variable region SEQ ID NO:2, light chain variable region SEQ ID NO: 4 (antibody, V domains shown)
VH: QVQLVQSGAEVKKPGSSVKVSCKASGGTFSSYAISWVRQAPGQGLEWMGGIIPLFDTTKYAQQFQGRVTITADESTSTAYMELSSLRSEDTAVFYCARDRDILTDYYPMGGMDVWGQGTTVTVSS
VL: AIQLTQSPSSLSASVGDRVTITCRASQGISSVLAWYQQKPGKAPKLLIYDASSLESGVPSRFSGSGSGTDFTLTISSLQPEDFATYYCQQSNSYPLTFGGGTKVEIKR
modifications: 3B9 VL1-VH amino acid sequence; 39B9 VL1-VL amino acid sequence
B2: 39B9 VL5: IL-6R antibody, heavy chain variable region SEQ ID NO:2, light chain variable region SEQ ID NO: 6 (antibody, V domains shown)
VH: QVQLVQSGAEVKKPGSSVKVSCKASGGTFSSYAISWVRQAPGQGLEWMGGIIPLFDTTKYAQQFQGRVTITADESTSTAYMELSSLRSEDTAVFYCARDRDILTDYYPMGGMDVWGQGTTVTVSS
VL: DILMTQSPSSLSASVGDRVTITCRASQDISSWLAWYQQKPGKAPKLLIYDASSLESGVPSRFSGSGSGTDFTLTISSLQPEDFATYYCQQSNSYPLTFGGGTKVEIKR
modifications: 3B9 VL1-VH amino acid sequence; 39B9 VL5-VL amino acid sequence
B3: 5C: IL-6R antibody, heavy chain variable region SEQ ID NO: 12, light chain variable region SEQ ID NO: 14 (antibody, V domains shown)
VH: QVQLVQSGGGVVQPGRSLRLSCAASGFIFSSYDMYWVRQAPGKGLEWVAVILYDGNNKYYADSVKGRFTISRDNSKNTVYLQMNSLRAEDTAVYYCVRASPNWGLFDFWGQGTLVTVSS
VL: DIQMTQSPSSLSASVGDRVTITCRASQGISSDLAWYQQKPGKAPKLLMYDASSLESGVPSRFSGSGSGTDFTLTISSLQPEDFATYYCQQFNSYPITFGQGTRLEIKR
modifications: 5C VH amino acid sequence; 5C VL amino acid sequence
B4: 12A: IL-6R antibody, heavy chain variable region SEQ ID NO:8, light chain variable region SEQ ID NO: 10 (antibody, V domains shown)
VH: QVQLVESWGGVVQPGRSLRLSCAASGFTFSNYDMYWVRQAPGKGLEWVAVILDDGNNNYYADSVKGRFTISRDNSKKKVYLQMNSLRAEDTAVYYCVRASPNWGLLDFWGQGTLVTVSS
VL: EIVLTQSPSSLSASVGDRVTITCRASQGISSWLAWYQQKPGKAPKLLIYDASSLESGVPSRFSGSGSGTDFTLTISSLQPEDFATYYCQQFNSYPITFGQGTRLEIKR
modifications: 12A VH amino acid sequence; 12A VL amino acid sequence

biological target: IL-6Rc (Homo sapiens, UniProt P05231+P08887); conditions: binding to gp130 to induce the signaling cascade; WO/2009/140348
Sequence (P08887 20-468): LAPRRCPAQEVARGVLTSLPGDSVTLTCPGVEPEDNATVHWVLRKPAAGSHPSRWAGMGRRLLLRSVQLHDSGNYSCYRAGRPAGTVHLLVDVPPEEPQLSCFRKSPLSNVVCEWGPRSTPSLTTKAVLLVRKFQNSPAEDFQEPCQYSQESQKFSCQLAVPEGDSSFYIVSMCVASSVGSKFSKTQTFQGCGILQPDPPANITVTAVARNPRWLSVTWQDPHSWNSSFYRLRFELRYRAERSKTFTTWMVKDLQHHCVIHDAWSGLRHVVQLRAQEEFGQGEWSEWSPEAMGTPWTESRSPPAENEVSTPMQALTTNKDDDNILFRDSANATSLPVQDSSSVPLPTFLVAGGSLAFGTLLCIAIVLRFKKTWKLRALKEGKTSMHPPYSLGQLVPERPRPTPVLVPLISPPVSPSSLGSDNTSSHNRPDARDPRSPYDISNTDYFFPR
Sequence (P05231 30-212): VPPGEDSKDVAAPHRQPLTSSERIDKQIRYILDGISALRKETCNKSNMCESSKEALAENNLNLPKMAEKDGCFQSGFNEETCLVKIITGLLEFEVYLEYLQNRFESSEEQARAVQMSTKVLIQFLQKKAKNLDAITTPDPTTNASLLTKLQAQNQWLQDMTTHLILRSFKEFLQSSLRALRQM

Molecule	functional activity of IL-6Rc in vitro
B1	inhibit the functional activity of IL-6Rc
B2	inhibit the functional activity of IL-6Rc
B3	inhibit the functional activity of IL-6Rc
B4	inhibit the functional activity of IL-6Rc
